# Results published in IntAct's records for PubMed 31515488.
# B1: Protein LDOC1 (Homo sapiens), O95751 (parent)
# chain: MVDELVLLLHALLMRHRALSIENSQLMEQLRLLVCERASLLRQVRPPSCPVPFPETFNGESSRLPEFIVQTASYMLVNENRFCNDAMKVAFLISLLTGEAEEWVVPYIEMDSPILGDYRAFLDEMKQCFGWDDDEDDDDEEEEDDY
# partner: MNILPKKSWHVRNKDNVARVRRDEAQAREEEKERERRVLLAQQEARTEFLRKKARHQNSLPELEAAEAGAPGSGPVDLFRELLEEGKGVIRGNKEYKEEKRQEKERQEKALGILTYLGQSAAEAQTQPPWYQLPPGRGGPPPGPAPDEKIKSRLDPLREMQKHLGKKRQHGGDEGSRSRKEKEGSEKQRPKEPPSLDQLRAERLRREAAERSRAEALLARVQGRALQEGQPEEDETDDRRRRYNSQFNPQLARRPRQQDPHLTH
# B2: cGMP-dependent protein kinase 1 (Homo sapiens), Q13976 (parent)
# chain: MSELEEDFAKILMLKEERIKELEKRLSEKEEEIQELKRKLHKCQSVLPVPSTHIGPRTTRAQGISAEPQTYRSFHDLRQAFRKFTKSERSKDLIKEAILDNDFMKNLELSQIQEIVDCMYPVEYGKDSCIIKEGDVGSLVYVMEDGKVEVTKEGVKLCTMGPGKVFGELAILYNCTRTATVKTLVNVKLWAIDRQCFQTIMMRTGLIKHTEYMEFLKSVPTFQSLPEEILSKLADVLEETHYENGEYIIRQGARGDTFFIISKGTVNVTREDSPSEDPVFLRTLGKGDWFGEKALQGEDVRTANVIAAEAVTCLVIDRDSFKHLIGGLDDVSNKAYEDAEAKAKYEAEAAFFANLKLSDFNIIDTLGVGGFGRVELVQLKSEESKTFAMKILKKRHIVDTRQQEHIRSEKQIMQGAHSDFIVRLYRTFKDSKYLYMLMEACLGGELWTILRDRGSFEDSTTRFYTACVVEAFAYLHSKGIIYRDLKPENLILDHRGYAKLVDFGFAKKIGFGKKTWTFCGTPEYVAPEIILNKGHDISADYWSLGILMYELLTGSPPFSGPDPMKTYNIILRGIDMIEFPKKIAKNAANLIKKLCRDNPSERLGNLKNGVKDIQKHKWFEGFNWEGLRKGTLTPPIIPSVASPTDTSNFDSFPEDNDEPPPDDNSGWDIDF
# partner: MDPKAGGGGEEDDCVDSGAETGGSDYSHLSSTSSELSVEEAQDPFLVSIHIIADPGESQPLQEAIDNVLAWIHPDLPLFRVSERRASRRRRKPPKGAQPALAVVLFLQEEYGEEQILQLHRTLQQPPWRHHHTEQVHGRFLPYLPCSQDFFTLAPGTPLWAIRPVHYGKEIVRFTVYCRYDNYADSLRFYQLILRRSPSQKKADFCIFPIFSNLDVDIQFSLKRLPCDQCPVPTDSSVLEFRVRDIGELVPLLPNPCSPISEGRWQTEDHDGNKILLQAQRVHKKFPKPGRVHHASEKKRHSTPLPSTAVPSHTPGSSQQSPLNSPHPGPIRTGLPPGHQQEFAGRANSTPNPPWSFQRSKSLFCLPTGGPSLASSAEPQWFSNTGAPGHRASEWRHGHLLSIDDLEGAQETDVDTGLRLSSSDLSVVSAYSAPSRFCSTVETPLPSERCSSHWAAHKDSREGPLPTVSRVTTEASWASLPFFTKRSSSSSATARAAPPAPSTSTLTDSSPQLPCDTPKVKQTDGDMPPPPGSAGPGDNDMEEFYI
# B3: Trichoplein keratin filament-binding protein (Homo sapiens), Q9BT92 (parent)
# chain: MALPTLPSYWCSQQRLNQQLARQREQEARLRQQWEQNSRYFRMSDICSSKQAEWSSKTSYQRSMHAYQREKMKEEKRRSLEARREKLRQLMQEEQDLLARELEELRLSMNLQERRIREQHGKLKSAKEEQRKLIAEQLLYEHWKKNNPKLREMELDLHQKHVVNSWEMQKEEKKQQEATAEQENKRYENEYERARREALERMKAEEERRQLEDKLQAEALLQQMEELKLKEVEATKLKKEQENLLKQRWELERLEEERKQMEAFRQKAELGRFLRHQYNAQLSRRTQQIQEELEADRRILQALLEKEDESQRLHLARREQVMADVAWMKQAIEEQLQLERAREAELQMLLREEAKEMWEKREAEWARERSARDRLMSEVLTGRQQQIQEKIEQNRRAQEESLKHREQLIRNLEEVRELARREKEESEKLKSARKQELEAQVAERRLQAWEADQQEEEEEEEARRVEQLSDALLQQEAETMAEQGYRPKPYGHPKIAWN
# B4: Microtubule-associated tumor suppressor candidate 2 (Homo sapiens), Q5JR59-3 (parent)
# chain: MGHCCCKPYNCLQCLDKTNESALVKEKELSIELANIRDEVAFHTAKCEKLQKEKEELERRFEDEVKRLGWQQQAELQELEERLQLQFEAEMARLQEEHGDQLLSIRCQHQEQVEDLTASHDAALLEMENNHTVAITILQDDHDHKVQELMSTHELEKKELEENFEKLRLSLQDQVDTLTFQSQSLRDRARRFEEALRKNTEEQLEIALAPYQHLEEDMKSLKQVLEMKNQQIHEQEKKILELEKLAEKNIILEEKIQVLQQQNEDLKARIDQNTVVTRQLSEENANLQEYVEKETQEKKRLSRTNEELLWKLQTGDPTSPIKLSPTSPVYRGSSSGPSSPARVSTTPR
# partner: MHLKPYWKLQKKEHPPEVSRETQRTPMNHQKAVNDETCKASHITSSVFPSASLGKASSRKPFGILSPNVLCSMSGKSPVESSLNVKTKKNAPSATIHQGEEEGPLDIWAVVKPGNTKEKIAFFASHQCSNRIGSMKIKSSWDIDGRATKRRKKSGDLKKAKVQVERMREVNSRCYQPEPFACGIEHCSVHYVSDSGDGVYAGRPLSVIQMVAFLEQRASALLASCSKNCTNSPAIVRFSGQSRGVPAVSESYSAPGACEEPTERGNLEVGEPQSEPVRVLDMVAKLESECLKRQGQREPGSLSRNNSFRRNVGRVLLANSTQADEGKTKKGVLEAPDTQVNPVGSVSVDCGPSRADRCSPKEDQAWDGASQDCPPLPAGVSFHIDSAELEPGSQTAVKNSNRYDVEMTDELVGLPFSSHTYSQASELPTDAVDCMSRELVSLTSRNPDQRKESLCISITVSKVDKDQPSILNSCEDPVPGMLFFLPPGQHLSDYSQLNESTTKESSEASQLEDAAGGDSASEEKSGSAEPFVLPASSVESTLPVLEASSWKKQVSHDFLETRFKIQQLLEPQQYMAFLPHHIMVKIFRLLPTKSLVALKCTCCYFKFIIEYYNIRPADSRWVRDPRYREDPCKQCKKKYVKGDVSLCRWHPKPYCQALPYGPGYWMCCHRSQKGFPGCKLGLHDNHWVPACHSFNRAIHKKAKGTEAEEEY
# B5: Isoform 1 of 1-aminocyclopropane-1-carboxylate synthase-like protein 1 (Homo sapiens), Q96QU6-1 (parent)
# chain: MFTLPQKDFRAPTTCLGPTCMQDLGSSHGEDLEGECSRKLDQKLPELRGVGDPAMISSDTSYLSSRGRMIKWFWDSAEEGYRTYHMDEYDEDKNPSGIINLGTSENKLCFDLLSWRLSQRDMQRVEPSLLQYADWRGHLFLREEVAKFLSFYCKSPVPLRPENVVVLNGGASLFSALATVLCEAGEAFLIPTPYYGAITQHVCLYGNIRLAYVYLDSEVTGLDTRPFQLTVEKLEMALREAHSEGVKVKGLILISPQNPLGDVYSPEELQEYLVFAKRHRLHVIVDEVYMLSVFEKSVGYRSVLSLERLPDPQRTHVMWATSKDFGMSGLRFGTLYTENQDVATAVASLCRYHGLSGLVQYQMAQLLRDRDWINQVYLPENHARLKAAHTYVSEELRALGIPFLSRGAGFFIWVDLRKYLPKGTFEEEMLLWRRFLDNKVLLSFGKAFECKEPGWFRFVFSDQVHRLCLGMQRVQQVLAGKSQVAEDPRPSQSQEPSDQRR
# partner: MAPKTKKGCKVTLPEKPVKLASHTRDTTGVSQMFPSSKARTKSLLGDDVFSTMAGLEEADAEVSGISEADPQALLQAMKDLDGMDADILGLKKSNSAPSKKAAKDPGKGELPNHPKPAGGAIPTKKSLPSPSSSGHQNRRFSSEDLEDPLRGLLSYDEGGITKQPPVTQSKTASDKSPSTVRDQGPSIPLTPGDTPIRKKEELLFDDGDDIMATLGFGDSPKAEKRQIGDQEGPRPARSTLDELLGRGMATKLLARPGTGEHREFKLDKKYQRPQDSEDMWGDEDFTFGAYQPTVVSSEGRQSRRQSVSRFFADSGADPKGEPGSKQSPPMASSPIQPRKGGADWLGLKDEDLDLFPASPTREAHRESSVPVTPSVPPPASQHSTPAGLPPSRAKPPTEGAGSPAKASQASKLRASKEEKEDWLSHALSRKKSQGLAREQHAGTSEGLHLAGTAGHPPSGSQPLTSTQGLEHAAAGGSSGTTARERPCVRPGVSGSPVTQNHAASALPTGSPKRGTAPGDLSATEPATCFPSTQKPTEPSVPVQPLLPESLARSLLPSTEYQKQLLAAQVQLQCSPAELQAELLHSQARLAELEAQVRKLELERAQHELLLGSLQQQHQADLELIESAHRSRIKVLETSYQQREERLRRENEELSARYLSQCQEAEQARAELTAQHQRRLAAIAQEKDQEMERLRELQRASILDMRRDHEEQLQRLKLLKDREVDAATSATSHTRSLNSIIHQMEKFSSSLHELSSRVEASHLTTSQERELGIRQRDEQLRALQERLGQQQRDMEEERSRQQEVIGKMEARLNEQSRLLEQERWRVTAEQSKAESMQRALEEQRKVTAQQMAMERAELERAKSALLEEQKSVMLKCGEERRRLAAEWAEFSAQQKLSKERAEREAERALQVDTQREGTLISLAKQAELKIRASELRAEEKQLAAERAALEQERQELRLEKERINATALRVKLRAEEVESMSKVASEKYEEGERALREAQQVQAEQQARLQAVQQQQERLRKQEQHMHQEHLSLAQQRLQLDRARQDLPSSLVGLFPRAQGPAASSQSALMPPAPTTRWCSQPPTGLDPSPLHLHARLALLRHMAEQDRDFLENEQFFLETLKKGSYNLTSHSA
# B6: Mothers against decapentaplegic homolog 3 (Homo sapiens), P84022 (parent)
# chain: MSSILPFTPPIVKRLLGWKKGEQNGQEEKWCEKAVKSLVKKLKKTGQLDELEKAITTQNVNTKCITIPRSLDGRLQVSHRKGLPHVIYCRLWRWPDLHSHHELRAMELCEFAFNMKKDEVCVNPYHYQRVETPVLPPVLVPRHTEIPAEFPPLDDYSHSIPENTNFPAGIEPQSNIPETPPPGYLSEDGETSDHQMNHSMDAGSPNLSPNPMSPAHNNLDLQPVTYCEPAFWCSISYYELNQRVGETFHASQPSMTVDGFTDPSNSERFCLGLLSNVNRNAAVELTRRHIGRGVRLYYIGGEVFAECLSDSAIFVQSPNCNQRYGWHPATVCKIPPGCNLKIFNNQEFAALLAQSVNQGFEAVYQLTRMCTIRMSFVKGWGAEYRRQTVTSTPCWIELHLNGPLQWLDKVLTQMGSPSIRCSSVS
# partner: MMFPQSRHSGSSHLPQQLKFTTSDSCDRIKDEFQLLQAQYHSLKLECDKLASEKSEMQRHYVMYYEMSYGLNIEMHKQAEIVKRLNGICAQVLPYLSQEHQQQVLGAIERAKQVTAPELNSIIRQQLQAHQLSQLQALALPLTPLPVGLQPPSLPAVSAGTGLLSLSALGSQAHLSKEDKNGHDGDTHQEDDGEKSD
# Variants of: B1
# Settings: with leng1_human LENG1, Q96BZ8
row,Variant,effect of a mutation on the interaction
1,L12H,disrupting interaction strength

# Variants of: B2
# Settings: with FAM124A
row,Variant,effect of a mutation on the interaction
1,N267S,with no effect

# Variants of: B3
# Settings: with KRT15, P19012
# Chain of KRT15, P19012 (P19012 whole entry): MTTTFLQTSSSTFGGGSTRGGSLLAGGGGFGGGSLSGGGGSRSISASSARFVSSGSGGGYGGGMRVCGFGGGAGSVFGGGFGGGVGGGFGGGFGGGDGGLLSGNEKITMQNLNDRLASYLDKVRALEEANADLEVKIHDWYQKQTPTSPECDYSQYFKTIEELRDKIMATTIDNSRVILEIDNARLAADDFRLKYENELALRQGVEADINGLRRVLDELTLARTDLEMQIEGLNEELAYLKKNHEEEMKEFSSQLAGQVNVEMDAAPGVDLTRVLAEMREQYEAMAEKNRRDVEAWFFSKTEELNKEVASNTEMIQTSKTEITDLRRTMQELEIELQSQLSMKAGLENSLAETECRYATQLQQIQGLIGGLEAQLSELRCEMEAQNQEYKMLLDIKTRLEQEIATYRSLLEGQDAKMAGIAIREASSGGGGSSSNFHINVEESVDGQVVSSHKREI
row,Variant,effect of a mutation on the interaction
1,R62Q,with no effect
2,K127R,with no effect

# Variants of: B3
# Settings: with cdr2_human CDR2, Q01850
# Chain of cdr2_human CDR2, Q01850 (Q01850 whole entry): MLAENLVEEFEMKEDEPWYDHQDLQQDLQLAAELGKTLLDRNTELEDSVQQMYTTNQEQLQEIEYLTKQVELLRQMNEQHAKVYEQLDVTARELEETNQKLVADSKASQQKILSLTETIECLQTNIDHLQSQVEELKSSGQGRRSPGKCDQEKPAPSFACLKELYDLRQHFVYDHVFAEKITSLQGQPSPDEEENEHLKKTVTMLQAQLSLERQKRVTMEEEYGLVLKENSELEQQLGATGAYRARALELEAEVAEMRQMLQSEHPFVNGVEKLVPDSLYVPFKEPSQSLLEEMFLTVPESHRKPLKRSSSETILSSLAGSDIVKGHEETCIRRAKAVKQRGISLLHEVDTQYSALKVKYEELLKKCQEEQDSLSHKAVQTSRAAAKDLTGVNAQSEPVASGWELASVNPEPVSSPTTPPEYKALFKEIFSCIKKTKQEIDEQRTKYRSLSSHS
row,Variant,effect of a mutation on the interaction
1,K127R,with no effect

# Variants of: B3
# Settings: with ndk7_human NME7, Q9Y5B8
# Chain of ndk7_human NME7, Q9Y5B8 (Q9Y5B8 whole entry): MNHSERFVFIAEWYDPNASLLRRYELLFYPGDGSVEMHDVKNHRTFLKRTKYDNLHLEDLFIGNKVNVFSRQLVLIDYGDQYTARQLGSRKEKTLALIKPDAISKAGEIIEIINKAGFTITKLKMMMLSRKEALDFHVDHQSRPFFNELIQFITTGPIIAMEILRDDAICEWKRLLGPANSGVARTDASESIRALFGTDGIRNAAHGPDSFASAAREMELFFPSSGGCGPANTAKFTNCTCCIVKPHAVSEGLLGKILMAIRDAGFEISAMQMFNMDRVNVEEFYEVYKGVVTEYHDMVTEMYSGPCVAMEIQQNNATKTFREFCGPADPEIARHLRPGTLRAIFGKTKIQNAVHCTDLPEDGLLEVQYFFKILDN
row,Variant,effect of a mutation on the interaction
1,K127R,with no effect
2,E417K,with no effect

# Variants of: B4
# Settings: with fbx34_human FBXO34, Q9NWN3
row,Variant,effect of a mutation on the interaction
1,A89V,with no effect

# Variants of: B5
# Settings: with fbf1_human FBF1, Q8TES7
row,Variant,effect of a mutation on the interaction
1,S393L,with no effect

# Variants of: B5
# Settings: with fbf1_human FBF1, Q8TES7
# Remark: another data set of the same source
row,Variant,effect of a mutation on the interaction
1,D59N,with no effect

# Variants of: B6
# Settings: with tle5_human TLE5, Q08117
row,Variant,effect of a mutation on the interaction
1,I170V,with no effect
